Source: publication PMC3316577

Assays:
[1] = molecular target: His-tagged CBFβ187 (mouse CBFβ, residues 1-187) (mouse) (UniProt Q08024); assay: SEC
[2] = molecular target: CBFβ140-His (residues 1-140 of CBFβ with six histidine residues at the N-terminus) (human) (UniProt Q13951); assay: SEC
[3] = molecular target: CBFβ140-His (residues 1-140 of CBFβ with six histidine residues at the N-terminus) (human) (UniProt Q13951); assay: SEC; Vif-CBFβ complexes co-expressed and purified by nickel affinity, Superdex 200 10/300 GL, 20 mM Tris-HCl pH 8.0, 150 mM NaCl, 10% glycerol; peak fractions by SDS-PAGE and Coomassie staining

UniProt Q13951, sequence (Q13951 1-140): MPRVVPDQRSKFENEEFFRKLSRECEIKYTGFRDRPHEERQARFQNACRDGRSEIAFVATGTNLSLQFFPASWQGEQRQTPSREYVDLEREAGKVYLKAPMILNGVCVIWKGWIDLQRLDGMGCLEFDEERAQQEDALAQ
UniProt Q08024, sequence (Q08024 whole entry, the tested form may be a part): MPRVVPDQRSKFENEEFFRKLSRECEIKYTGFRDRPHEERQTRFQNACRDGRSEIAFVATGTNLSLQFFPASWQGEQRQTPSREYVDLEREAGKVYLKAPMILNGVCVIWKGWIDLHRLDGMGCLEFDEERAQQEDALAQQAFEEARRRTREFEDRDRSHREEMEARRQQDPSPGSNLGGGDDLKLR

Substance	stoichiometry N [1]	stoichiometry N [2]	stoichiometry N [3]
Elongin B / Elongin C (residues 17 to 112) (from UniProt Q15370 1-118; Q15369 17-112) (complex)	1	1	
full-length HIV-1 Vif (residues 1-192) (from UniProt P12504) (natural protein)	1	1	1
truncated HIV-1 Vif140 (residues 1-140) (from UniProt P12504 1-140) (domain or fragment)			1
truncated HIV-1 Vif176 (residues 1-176) (from UniProt P12504 1-176) (domain or fragment)			1
